# Data from the RNAGym collection of RNA variant scans (doi:10.7554/elife.80360).
# B1: Hairpin Ribozyme (parent)
# chain: GUCCUCUUUCACGUGCGCGUGAAAGAGAGAAGUGAACCAGAGAAACACACGUUGUGGUAUAUUACCUGGUA
# Variants of: B1
# Assay: self-cleavage, relative activity (ratio to wild type); higher = more cleavage; co-transcriptional
row,Variant,self-cleavage
1,GUCCUCUUUCACGUGCGCGUGAAAGAGAGAAGUGAGCCAGAGAGACACACGUUGUGGUAUAUUACCUGGUA [A36G A44G],0.276
2,GUCCUCUUUCACGUGCGCGUGAAAGAGAGAAGUGAGCCAGAGACACACACGUUGUGGUAUAUUACCUGGUA [A36G A44C],0.0853
3,GUCCUCUUUCACGUGCGCGUGAAAGAGAGAAGUGAUCCAGAGAAACACACGUUGUGGUAUAUUACCCGGUA [A36U U67C],0.133
4,GUCCUCUUUCACGUGCGCGUGAAAGAGAGAAGUGAGCCAGAGAAACACACGUUGUGGUAUAGUACCUGGUA [A36G U62G],0.221
5,GUCCUCUUUCACGUGCGCGUGAAAGAGAGAAGUGAGCCAGAGAAACACAGGUUGUGGUAUAUUACCUGGUA [A36G C50G],0.382
6,GUCCUCUUUCACGUGCGCGUGAAAGAGAGAAGUGAGCCAGAGAAACACAUGUUGUGGUAUAUUACCUGGUA [A36G C50U],0.407
7,GUCCUCUUUCACGUGCGCGUGAAAGAGAGAAGUGAGCCAGAGAAACACACGUUGUGGUAUAUUACCUGGUC [A36G A71C],1.23
8,GUCCUCUUUCACGUGCGCGUGAAAGAGAGAAGUGAUCCAGAGAAACACACGUUGUGGUAUAUUAUCUGGUA [A36U C65U],0.113
9,GUCCUCUUUCACGUGCGCGUGAAAGAGAGAAGUGAGCCAGAGAAACACACGUUUUGGUAUAUUACCUGGUA [A36G G54U],0.816
10,GUCCUCUUUCACGUGCGCGUGAAAGAGAGAAGUGAGCCAGAGAAACACACGUUGUGGUAUAUUCCCUGGUA [A36G A64C],0.17
11,GUCCUCUUUCACGUGCGCGUGAAAGAGAGAAGUGAUCCAGAUAAACACACGUUGUGGUAUAUUACCUGGUA [A36U G42U],0.173
12,GUCCUCUUUCACGUGCGCGUGAAAGAGAGAAGUGAGCCAGAGAAACACACGUUGUGGUAUAUUACUUGGUA [A36G C66U],0.482
13,GUCCUCUUUCACGUGCGCGUGAAAGAGAGAAGUGAUCCCGAGAAACACACGUUGUGGUAUAUUACCUGGUA [A36U A39C],0.084
14,GUCCUCUUUCACGUGCGCGUGAAAGAGAGAAGUGAUCCAGAGAAACACACGUAGUGGUAUAUUACCUGGUA [A36U U53A],0.464
15,GUCCUCUUUCACGUGCGCGUGAAAGAGAGAAGUGAUCCAGAGAAACAGACGUUGUGGUAUAUUACCUGGUA [A36U C48G],0.182
16,GUCCUCUUUCACGUGCGCGUGAAAGAGAGAAGUGAUCCAGAGAAACACACGUUGUGGUAAAUUACCUGGUA [A36U U60A],0.487
17,GUCCUCUUUCACGUGCGCGUGAAAGAGAGAAGUGAUCCAGAGAAACACACGUUGUGGUAUAUUACAUGGUA [A36U C66A],0.114
18,GUCCUCUUUCACGUGCGCGUGAAAGAGAGAAGUGAUCCAGAGAAAGACACGUUGUGGUAUAUUACCUGGUA [A36U C46G],0.0439
19,GUCCUCUUUCACGUGCGCGUGAAAGAGAGAAGUGAUCCAGAGAAAAACACGUUGUGGUAUAUUACCUGGUA [A36U C46A],0.0951
20,GUCCUCUUUCACGUGCGCGUGAAAGAGAGAAGUGAUCCAGAGGAACACACGUUGUGGUAUAUUACCUGGUA [A36U A43G],0.138
21,GUCCUCUUUCACGUGCGCGUGAAAGAGAGAAGUGAUCCAGAGUAACACACGUUGUGGUAUAUUACCUGGUA [A36U A43U],0.0848
22,GUCCUCUUUCACGUGCGCGUGAAAGAGAGAAGUGAUCCAGAGCAACACACGUUGUGGUAUAUUACCUGGUA [A36U A43C],0.0574
23,GUCCUCUUUCACGUGCGCGUGAAAGAGAGAAGUGAUCCAGCGAAACACACGUUGUGGUAUAUUACCUGGUA [A36U A41C],0.654
24,GUCCUCUUUCACGUGCGCGUGAAAGAGAGAAGUGAGCCAGAGAAACACACGUGGUGGUAUAUUACCUGGUA [A36G U53G],0.507
25,GUCCUCUUUCACGUGCGCGUGAAAGAGAGAAGUGAGCCAGAGAAACACACGUAGUGGUAUAUUACCUGGUA [A36G U53A],1.2
26,GUCCUCUUUCACGUGCGCGUGAAAGAGAGAAGUGAGCCAGAGAAACACACGUUGUGGUAUAUGACCUGGUA [A36G U63G],0.3

row,Variant,self-cleavage
1,GUCCUCUUUCACGUGCGCGUGAAAGAGAGAAGUGAUCCAGAGAAACACAUGUUGUGGUAUAUUACCUGGUA [A36U C50U],0.125
2,GUCCUCUUUCACGUGCGCGUGAAAGAGAGAAGUGAUCCAGAGAAACACAGGUUGUGGUAUAUUACCUGGUA [A36U C50G],0.0987
3,GUCCUCUUUCACGUGCGCGUGAAAGAGAGAAGUGAGCCAGAGAAACACCCGUUGUGGUAUAUUACCUGGUA [A36G A49C],0.0302
4,GUCCUCUUUCACGUGCGCGUGAAAGAGAGAAGUGAUCCAGAGAAACACACGUUGUAGUAUAUUACCUGGUA [A36U G56A],0.0631
5,GUCCUCUUUCACGUGCGCGUGAAAGAGAGAAGUGAUCCAGAGAAACACACGUUGUCGUAUAUUACCUGGUA [A36U G56C],0.131
6,GUCCUCUUUCACGUGCGCGUGAAAGAGAGAAGUGAUCCAGAGAAACACACGUUGAGGUAUAUUACCUGGUA [A36U U55A],0.161
7,GUCCUCUUUCACGUGCGCGUGAAAGAGAGAAGUGAUCCAGAGAAACACACGUUGUGGUAUAUUACCUGGUC [A36U A71C],0.959
8,GUCCUCUUUCACGUGCGCGUGAAAGAGAGAAGUGAUCCAGAGAAUCACACGUUGUGGUAUAUUACCUGGUA [A36U A45U],0.057
9,GUCCUCUUUCACGUGCGCGUGAAAGAGAGAAGUGAUCCAGAGAACCACACGUUGUGGUAUAUUACCUGGUA [A36U A45C],0.224
10,GUCCUCUUUCACGUGCGCGUGAAAGAGAGAAGUGAUCCAGAGAAGCACACGUUGUGGUAUAUUACCUGGUA [A36U A45G],0.106
11,GUCCUCUUUCACGUGCGCGUGAAAGAGAGAAGUGAAACUGAGAAACACACGUUGUGGUAUAUUACCUGGUA [C37A A39U],0.0999
12,GUCCUCUUUCACGUGCGCGUGAAAGAGAGAAGUGAGCAAGAGAAACACACGUUGUGGUAUAUUACCUGGUA [A36G C38A],0.146
13,GUCCUCUUUCACGUGCGCGUGAAAGAGAGAAGUGAGCUAGAGAAACACACGUUGUGGUAUAUUACCUGGUA [A36G C38U],0.523
14,GUCCUCUUUCACGUGCGCGUGAAAGAGAGAAGUGAGCCAGAGAAACACACGAUGUGGUAUAUUACCUGGUA [A36G U52A],0.791
15,GUCCUCUUUCACGUGCGCGUGAAAGAGAGAAGUGAUCCAGAGAGACACACGUUGUGGUAUAUUACCUGGUA [A36U A44G],0.183
16,GUCCUCUUUCACGUGCGCGUGAAAGAGAGAAGUGAUCCAGAGACACACACGUUGUGGUAUAUUACCUGGUA [A36U A44C],0.112
17,GUCCUCUUUCACGUGCGCGUGAAAGAGAGAAGUGAGCCAGAGAAACACACGUUGUGGCAUAUUACCUGGUA [A36G U58C],1
18,GUCCUCUUUCACGUGCGCGUGAAAGAGAGAAGUGAGCCAGAGAAACACACGUUGUGGAAUAUUACCUGGUA [A36G U58A],0.836
19,GUCCUCUUUCACGUGCGCGUGAAAGAGAGAAGUGAUCCAGAGAAACACACGUUGUGGAAUAUUACCUGGUA [A36U U58A],0.386
20,GUCCUCUUUCACGUGCGCGUGAAAGAGAGAAGUGAGGCAGAGAAACACACGUUGUGGUAUAUUACCUGGUA [A36G C37G],0.287
21,GUCCUCUUUCACGUGCGCGUGAAAGAGAGAAGUGAUCCAGAGAAACACACGCUGUGGUAUAUUACCUGGUA [A36U U52C],0.765
22,GUCCUCUUUCACGUGCGCGUGAAAGAGAGAAGUGAUCCAGAGAAACACACGAUGUGGUAUAUUACCUGGUA [A36U U52A],0.303
23,GUCCUCUUUCACGUGCGCGUGAAAGAGAGAAGUGAUCCAGAGAAACACACGGUGUGGUAUAUUACCUGGUA [A36U U52G],0.466
24,GUCCUCUUUCACGUGCGCGUGAAAGAGAGAAGUGAUCCAAAGAAACACACGUUGUGGUAUAUUACCUGGUA [A36U G40A],0.296
25,GUCCUCUUUCACGUGCGCGUGAAAGAGAGAAGUGAGCCAGAGAAACACACGUUGUGGUAUCUUACCUGGUA [A36G A61C],0.328
26,GUCCUCUUUCACGUGCGCGUGAAAGAGAGAAGUGAGCCAGAGAAACACACGUUGUGGUGUAUUACCUGGUA [A36G A59G],0.146

row,Variant,self-cleavage
1,GUCCUCUUUCACGUGCGCGUGAAAGAGAGAAGUGAGCCAGAGAAACACACGUUGUGGUCUAUUACCUGGUA [A36G A59C],0.102
2,GUCCUCUUUCACGUGCGCGUGAAAGAGAGAAGUGAGCCAGAGAAACACACGUUGUGGUUUAUUACCUGGUA [A36G A59U],0.0811
3,GUCCUCUUUCACGUGCGCGUGAAAGAGAGAAGUGAGCCAGAGAAACACACGUUGUGGUAUAUUACCUGCUA [A36G G69C],0.449
4,GUCCUCUUUCACGUGCGCGUGAAAGAGAGAAGUGAGCCAGAGAAACACACCUUGUGGUAUAUUACCUGGUA [A36G G51C],0.629
5,GUCCUCUUUCACGUGCGCGUGAAAGAGAGAAGUGAUCCAGAGAAACUCACGUUGUGGUAUAUUACCUGGUA [A36U A47U],0.141
6,GUCCUCUUUCACGUGCGCGUGAAAGAGAGAAGUGAUCCAGAGAAACGCACGUUGUGGUAUAUUACCUGGUA [A36U A47G],0.172
7,GUCCUCUUUCACGUGCGCGUGAAAGAGAGAAGUGAGCCAGAGAAACAGACGUUGUGGUAUAUUACCUGGUA [A36G C48G],0.259
8,GUCCUCUUUCACGUGCGCGUGAAAGAGAGAAGUGAGCCAGAGAAACACACGUUGUGUUAUAUUACCUGGUA [A36G G57U],0.317
9,GUCCUCUUUCACGUGCGCGUGAAAGAGAGAAGUGAAACAGAGAAACACACGUUGUGGUAUAUUACCUGGUA [C37A],0.345
10,GUCCUCUUUCACGUGCGCGUGAAAGAGAGAAGUGAUCCAGAGAAACACACAUUGUGGUAUAUUACCUGGUA [A36U G51A],0.508
11,GUCCUCUUUCACGUGCGCGUGAAAGAGAGAAGUGAUCCAGAGAAACACACGUUGUGGUCUAUUACCUGGUA [A36U A59C],0.228
12,GUCCUCUUUCACGUGCGCGUGAAAGAGAGAAGUGAGCCAGAGAAACACACGUUGUGGUAUAUUACCAGGUA [A36G U67A],0.195
13,GUCCUCUUUCACGUGCGCGUGAAAGAGAGAAGUGAUCCAGAGAAACACCCGUUGUGGUAUAUUACCUGGUA [A36U A49C],0.214
14,GUCCUCUUUCACGUGCGCGUGAAAGAGAGAAGUGAGCCAGAGAAACUCACGUUGUGGUAUAUUACCUGGUA [A36G A47U],0.127
15,GUCCUCUUUCACGUGCGCGUGAAAGAGAGAAGUGAGCCAGAGAAACCCACGUUGUGGUAUAUUACCUGGUA [A36G A47C],0.372
16,GUCCUCUUUCACGUGCGCGUGAAAGAGAGAAGUGAGCCAGAGAAACACACGUUGUAGUAUAUUACCUGGUA [A36G G56A],0.146
17,GUCCUCUUUCACGUGCGCGUGAAAGAGAGAAGUGAGCCAGAGAAACACACGUUGUCGUAUAUUACCUGGUA [A36G G56C],0.0421
18,GUCCUCUUUCACGUGCGCGUGAAAGAGAGAAGUGAGCCAGAGAAAAACACGUUGUGGUAUAUUACCUGGUA [A36G C46A],0.0586
19,GUCCUCUUUCACGUGCGCGUGAAAGAGAGAAGUGAGCCAGAGAAACACACGUUGUGGUAAAUUACCUGGUA [A36G U60A],0.779
20,GUCCUCUUUCACGUGCGCGUGAAAGAGAGAAGUGAGCCAGAGAAACACACGUUGUGGUACAUUACCUGGUA [A36G U60C],1.1
21,GUCCUCUUUCACGUGCGCGUGAAAGAGAGAAGUGAGCCAGAGAAACACACGUUGUGGUAGAUUACCUGGUA [A36G U60G],0.62
22,GUCCUCUUUCACGUGCGCGUGAAAGAGAGAAGUGAUCAAGAGAAACACACGUUGUGGUAUAUUACCUGGUA [A36U C38A],0.0871
23,GUCCUCUUUCACGUGCGCGUGAAAGAGAGAAGUGAUCUAGAGAAACACACGUUGUGGUAUAUUACCUGGUA [A36U C38U],0.112
24,GUCCUCUUUCACGUGCGCGUGAAAGAGAGAAGUGAGCCAGAAAAACACACGUUGUGGUAUAUUACCUGGUA [A36G G42A],0.23
